Laboratory results as given in patent publication US20210347848A1 (ALX ONCOLOGY, published 2021).
Where a chain is given by its changes, count along the chain named. Where two headings read alike, the source gives them in different places.

B1: Decoy polypeptide T (Fc fusion)
chain: EEELQVIQPDKSISVAAGESATLHCTVTSLIPVGPIQWFRGAGPGRELIYNQKEGHFPRVTTVSDLTKRNNMDFSIRISNITPADAGTYYCVKFRKGSPDHVEFKSGAGTELSVRAKPSDKTHTCPPCPAPEAAGAPSVFLFPPKPKDTLMISRTPEVTCVVVDVSHEDPEVKFNWYVDGVEVHNAKTKPREEQYASTYRVVSVLTVLHQDWLNGKEYKCKVSNKALPAPIEKTISKAKGQPREPQVYTLPPSREEMTKNQVSLTCLVKGFYPSDIAVEWESNGQPENNYKTTPPVLDSDGSFFLYSKLTVDKSRWQQGNVFSCSVMHEALHNHYTQKSLSLSPG
notes: also called wild type SIRPβ2
B2: Decoy polypeptide E (Fc fusion)
chain: EEELQIIQPEKLLLVTVGKTATLHCTITSLFPVGPIQWFRGAGPGRVLIYNQRDGPFPRVTTVSDGTKRNNMDFSIRISSITPADVGTYYCIKFRKGTPEDVEFKSGPGTEMALGAKPSDKTHTCPPCPAPEAAGAPSVFLFPPKPKDTLMISRTPEVTCVVVDVSHEDPEVKFNWYVDGVEVHNAKTKPREEQYASTYRVVSVLTVLHQDWLNGKEYKCKVSNKALPAPIEKTISKAKGQPREPQVYTLPPSREEMTKNQVSLTCLVKGFYPSDIAVEWESNGQPENNYKTTPPVLDSDGSFFLYSKLTVDKSRWQQGNVFSCSVMHEALHNHYTQKSLSLSPG
B3: Decoy polypeptide N (Fc fusion)
chain: B2 chain with I6M, T98I
B4: Decoy polypeptide R (Fc fusion)
chain: EEELQMIQPEKLLLVTVGKTATLHCTVTSLLPVGPVLWFRGVGPGRELIYNQKEGHFPRVTTVSDLTKRNNMDFSIRISSITPADVGTYYCVKFRKGSPENVEFKSGPGTEMALGAKPSDKTHTCPPCPAPEAAGAPSVFLFPPKPKDTLMISRTPEVTCVVVDVSHEDPEVKFNWYVDGVEVHNAKTKPREEQYASTYRVVSVLTVLHQDWLNGKEYKCKVSNKALPAPIEKTISKAKGQPREPQVYTLPPSREEMTKNQVSLTCLVKGFYPSDIAVEWESNGQPENNYKTTPPVLDSDGSFFLYSKLTVDKSRWQQGNVFSCSVMHEALHNHYTQKSLSLSPG
notes: also called wild type SIRPγ
B5: Decoy polypeptide M (Fc fusion)
chain: B2 chain with V33I, Q37L, A42V, R53K, I92V, T98S
B6: Decoy polypeptide I (Fc fusion)
chain: B2 chain with A42V, D54E, I92V, T98S
B7: Decoy polypeptide K (Fc fusion)
chain: B2 chain with I27L, F31L, Q37L, A42V, I92V, T98N
B8: Decoy polypeptide S (Fc fusion)
chain: EDELQVIQPEKSVSVAAGESATLRCAMTSLIPVGPIMWFRGAGAGRELIYNQKEGHFPRVTTVSELTKRNNLDFSISISNITPADAGTYYCVKFRKGSPDDVEFKSGAGTELSVRAKPSDKTHTCPPCPAPEAAGAPSVFLFPPKPKDTLMISRTPEVTCVVVDVSHEDPEVKFNWYVDGVEVHNAKTKPREEQYASTYRVVSVLTVLHQDWLNGKEYKCKVSNKALPAPIEKTISKAKGQPREPQVYTLPPSREEMTKNQVSLTCLVKGFYPSDIAVEWESNGQPENNYKTTPPVLDSDGSFFLYSKLTVDKSRWQQGNVFSCSVMHEALHNHYTQKSLSLSPG
notes: also called wild type SIRPβ1

What was measured:
cynomolgus monkey CD47 = biological target: T1, cynomolgus monkey CD47 (cynomolgus monkey, UniProt A0A2K5X523 19-135); experiment: SPR, decoy captured on biotinylated Protein A (NLC chip), CD47 as analyte
T1 construct: Soluble analyte in SPR; construct not described; also called Cyno CD47

human CD47 [1] = biological target: T2, human CD47 (human, UniProt Q08722 19-135); experiment: as above
T2 construct: Soluble analyte in SPR; also called hCD47
T2 sequence (Q08722 other isoform, or with tags, fused parts or gaps limits assumed): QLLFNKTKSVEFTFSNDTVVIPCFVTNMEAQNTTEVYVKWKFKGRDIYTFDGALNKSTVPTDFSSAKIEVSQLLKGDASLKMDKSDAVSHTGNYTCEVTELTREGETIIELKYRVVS

mouse CD47 = biological target: T3, mouse CD47 (mouse, UniProt Q61735 19-140, limits assumed); experiment: as above
T3 construct: Soluble analyte in SPR; construct not described
T3 sequence (looked up): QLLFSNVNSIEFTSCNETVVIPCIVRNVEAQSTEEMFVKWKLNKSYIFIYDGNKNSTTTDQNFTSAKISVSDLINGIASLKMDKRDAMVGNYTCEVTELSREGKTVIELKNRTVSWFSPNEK

human CD47 [2] = biological target: T2, human CD47; experiment: as above; remark: listed apart in the source
Protocol: (§1) The binding affinities each decoy polypeptides for CD47 from various species (e.g., human CD47, cynomolgus monkey CD47, and mouse CD47) were determined using indirect capture via biotinylated Protein A (via NLC chip). All experiments were performed at 25° C. using a Surface Plasmon Resonance (SPR)-based ProteOn XPR36 biosensor (BioRad, Inc., Hercules, Calif.). The running buffer was PBS at pH 7.4 with 0.01% Tween-20 (PBST+). All analytes were used at their nominal concentrations as determined by A₂₈₀ absorbance and using their molar calculated extinction coefficients.
(§2) As a first step, 15 μg/mL biotinylated protein A (Thermofisher) was injected at 30 μL/min for 120 seconds over the NLC chip to obtain an immobilization response of about 1000-1200 RUs. Next, decoy polypeptides (about 100-160 nM) were injected for 80 seconds at 30 μL/min. The CD47 analytes (from human, cynomolgus monkey, and mouse) were subsequently injected in a “one-shot” kinetic mode at nominal concentrations of 100 nM, 33 nM, 11 nM, 3.7 nM, 1.2 nM, and 0 nM. Association times were monitored for 60 seconds at 25 μL/min, and dissociation times were monitored for 500 seconds. The surfaces were regenerated with a 2:1 v/v blend of Pierce IgG elution buffer/4M NaCl. Biosensor data were double-referenced by subtracting the interspot data (containing no immobilized protein) from the reaction spot data (immobilized protein) and then subtracting the response of a buffer “blank” analyte injection from that of an analyte injection. Double-referenced data were fit globally to a simple Langmuir model and the KD value was calculated from the ratio of the apparent kinetic rate constants (KD=kd/kₐ).

human CD47 [3] = biological target: T2, human CD47; experiment: SPR; the reference itself (wild type SIRPγ D1 domain)
human CD47 [4] = biological target: T2, human CD47; experiment: SPR, decoy captured on biotinylated Protein A, CD47 as analyte, 25 C
Protocol: as §1, §2

human CD47 [5] = biological target: T2, human CD47; experiment: as above; remark: listed apart in the source
Protocol: as §1, §2

Row | Binder | binding result (cynomolgus monkey CD47) | binding result (mouse CD47) | binding result (human CD47 [2]) | further results
1 | B1 | no binding (tested: CD47 analyte up to 100 nM) | no binding (tested: CD47 analyte up to 100 nM) |  | binding result (human CD47 [1]): no binding (tested: CD47 analyte up to 100 nM)
2 | B2 |  |  | no binding (tested: CD47 analyte up to 100 nM) | 
3 | B3 |  |  | no binding (tested: CD47 analyte up to 100 nM) | 
4 | B4 | no binding (tested: CD47 analyte up to 100 nM) | no binding (tested: CD47 analyte up to 100 nM) |  | Fold improvement in KD vs wild type (human CD47 [3]): 1 fold; Kd (human CD47 [4]): 2190 nM; Kd (human CD47 [5]): 2190 nM
5 | B5 |  |  | no binding (tested: CD47 analyte up to 100 nM) | 
6 | B6 |  |  | no binding (tested: CD47 analyte up to 100 nM) | 
7 | B7 |  |  | no binding (tested: CD47 analyte up to 100 nM) | 
8 | B8 | no binding (tested: CD47 analyte up to 100 nM) | no binding (tested: CD47 analyte up to 100 nM) |  | binding result (human CD47 [1]): no binding (tested: CD47 analyte up to 100 nM)
